US20130323259A1 (Novo Nordisk, published 2013)
Where “and” joins values, the source holds several entries; their conditions need not be identical. Equal values may be shown once.

Key:
[1] = molecular target: T1, human IL-21 (hIL-21 protein; recombinant human IL-21) (human, UniProt Q9HBE4 25-162, limits assumed); assay: cell-based or functional assay
[2] = molecular target: T1, human IL-21 (hIL-21 protein; …); assay: SPR (Biacore), mAb captured by anti-Fc, hIL-21 as analyte; experiment no 1
[3] = molecular target: T1, human IL-21 (hIL-21 protein; …); assay: SPR, Biacore T200, mAb captured by anti-human Fc, hIL-21 as analyte; exp no 1
Experimental: (§1) Anti-human Fc monoclonal from Biacore human Fc capture kit was immobilized onto flow cells of a CM4 sensor chip according to the manufacturer's instructions. […] The CM4 surface was regenerated after each injection cycle of analyte via two injections of 3M MgCl₂ at 50 μl/min.
(§2) In order to receive kinetic data, such as ka (association rate), kd (dissociation rate) and KD (equilibrium dissociation constant), data analysis was performed using the Biacore T200 evaluation software 1.0.

[4] = molecular target: T1, human IL-21 (hIL-21 protein; …); assay: SPR (Biacore), mAb captured by anti-Fc, hIL-21 as analyte; experiment no 2
[5] = molecular target: T1, human IL-21 (hIL-21 protein; …); assay: SPR, Biacore T200, mAb captured by anti-human Fc, hIL-21 as analyte; exp no 2
Experimental: as §1, §2

[6] = molecular target: hIL-21: human recombinant IL-21, corresponding to residues 30-162 and with an N-terminal Methionine as … (human, UniProt Q9HBE4 30-162); assay: HX-MS, 4 µM hIL-21 with 2.4 µM mAb
Sequence of hIL-21: human recombinant IL-21, corresponding to residues 30-162 and with an N-terminal Methionine as … (Q9HBE4 other isoform, or with tags, fused parts or gaps): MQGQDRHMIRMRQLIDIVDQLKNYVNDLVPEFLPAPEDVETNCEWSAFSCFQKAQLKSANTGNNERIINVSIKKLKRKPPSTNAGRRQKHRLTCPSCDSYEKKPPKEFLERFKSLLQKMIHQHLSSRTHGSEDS

[7] = molecular target: T1, human IL-21 (hIL-21 protein; …); assay: SPR (Biacore), average of experiments
[8] = molecular target: T1, human IL-21 (hIL-21 protein; …); assay: SPR, Biacore T200, mAb captured by anti-human Fc, hIL-21 as analyte; exp no 1; Exp no 1, first of the two exp-1 rows for 0005
[9] = molecular target: T1, human IL-21 (hIL-21 protein; …); assay: cell-based or functional assay; remark: listed apart in the source
[10] = molecular target: T1, human IL-21 (hIL-21 protein; …); assay: SPR, Biacore T200, average of two experiments
Experimental: as §1, §2

[11] = molecular target: T1, human IL-21 (hIL-21 protein; …); assay: SPR (Biacore), mAb captured by anti-Fc, hIL-21 as analyte; experiment no 6

T1 sequence (Q9HBE4 25-162 limits assumed): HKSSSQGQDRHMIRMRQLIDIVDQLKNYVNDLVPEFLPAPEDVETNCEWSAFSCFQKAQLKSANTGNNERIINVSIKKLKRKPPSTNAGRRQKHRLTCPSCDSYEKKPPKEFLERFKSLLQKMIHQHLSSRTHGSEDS

| Binder | Kd [3] | koff [3] | kon [3] [M⁻¹ s⁻¹] | Kd [5] [pM] | koff [5] [s⁻¹] | kon [5] [M⁻¹ s⁻¹] | amides protected from exchange in region E93-V98 at 100 sec [6] [amides] | IC50 (nM), B cell proliferation, Donor 2 [1] [nM] | IC50 (nM), B cell proliferation, Donor 4 [1] [nM] | Bioactivity as % of RM (NCC0114-0000-0006), NK-92 bioassay [9] [%] | IC50 (nM), B cell proliferation, Donor 1 [1] [nM] | IC50 (nM), B cell proliferation, Donor 3 [1] [nM] | also measured |
| --- | --- | --- | --- | --- | --- | --- | --- | --- | --- | --- | --- | --- | --- |
| monoclonal antibody NNC 0114-0005 (antibody, human IgG1, kappa, V domains shown, also called NNC114-0005) VH: QVQLVESGGGVVQPGRSLRLSCAASGFTFSSYGMHWVRQAPGKGLEWVAFIWYDGSDKYYADSVKGRFTISRDNSKNTLYLQMNSLRAEDTAVYYCARDGDSSDWYGDYYFGMDVWGQGTTVTVSS VL: not shown | 0.58 pM and 0.72 pM | 9.5e-06 s⁻¹ and 1.1e-05 s⁻¹ | 1.5e+07 | 0.17 | 1.1e-05 | 6.6e+07 | ~2 | – | – | – | – | – | IC50 (nM), B cell proliferation, Donor 1 (0114-0000-0006) [1]: 0.82 nM; IC50 (nM), B cell proliferation, Donor 2 (0114-0000-0006) [1]: 0.83 nM; IC50 (nM), B cell proliferation, Donor 3 (0114-0000-0006) [1]: 0.57 nM; IC50 (nM), B cell proliferation, Donor 4 (0114-0000-0006) [1]: 1.33 nM; Kd [2]: 0.58 pM and 0.72 pM; koff [2]: 9.5e-06 s⁻¹ and 1.1e-05 s⁻¹; kon [2]: 1.6e+07 M⁻¹ s⁻¹ and 1.5e+07 M⁻¹ s⁻¹; Kd [4]: 0.17 pM; koff [4]: 1.1e-05 s⁻¹; kon [4]: 6.6e+07 M⁻¹ s⁻¹; Kd [7]: ≤ 1 pM; koff [7]: 1e-05 s⁻¹; kon [8]: 1.6e+07 M⁻¹ s⁻¹ |
| 0114-0000-0043, light chain R55K variant of mAb 0006 (NNC 0114-0005) (antibody, human IgG1, kappa, V domains shown) VH: QVQLVESGGGVVQPGRSLRLSCAASGFTFSSYGMHWVRQAPGKGLEWVAFIWYDGSDKYYADSVKGRFTISRDNSKNTLYLQMNSLRAEDTAVYYCARDGDSSDWYGDYYFGMDVWGQGTTVTVSS VL: EIVLTQSPGTLSLSPGERATLSCRASQSVSSSYLAWYQQKPGQAPRLLIYGASSKATGIPDRFSGSGSGTDFTLTISRLEPEDFAVYYCQQYGSWTFGQGTKVEIKR | – | – | – | – | – | – | – | 0.3 | 1.35 | 89.8 | – | – | – |
| NNC-0114-0044, Light-chain residue 57 Thr to Ser mutated form (L:T57S) of NNC 0114-0005 (antibody, human IgG1, kappa, V domains shown) VH: QVQLVESGGGVVQPGRSLRLSCAASGFTFSSYGMHWVRQAPGKGLEWVAFIWYDGSDKYYADSVKGRFTISRDNSKNTLYLQMNSLRAEDTAVYYCARDGDSSDWYGDYYFGMDVWGQGTTVTVSS VL: EIVLTQSPGTLSLSPGERATLSCRASQSVSSSYLAWYQQKPGQAPRLLIYGASSRASGIPDRFSGSGSGTDFTLTISRLEPEDFAVYYCQQYGSWTFGQGTKVEIKR | ≤ 0.46 pM | ≤ 1e-05 s⁻¹ | 2.2e+07 | 0.24 | 1.3e-05 | 5.4e+07 | – | 0.8 | 1.17 | 77.8 | – | – | Kd [10]: ≤ 1 pM; koff [10]: 1e-05 s⁻¹ |
| 0114-0000-0040, light chain S53T variant of mAb 0006 (NNC 0114-0005) (antibody, human IgG1, kappa, V domains shown) VH: QVQLVESGGGVVQPGRSLRLSCAASGFTFSSYGMHWVRQAPGKGLEWVAFIWYDGSDKYYADSVKGRFTISRDNSKNTLYLQMNSLRAEDTAVYYCARDGDSSDWYGDYYFGMDVWGQGTTVTVSS VL: EIVLTQSPGTLSLSPGERATLSCRASQSVSSSYLAWYQQKPGQAPRLLIYGATSRATGIPDRFSGSGSGTDFTLTISRLEPEDFAVYYCQQYGSWTFGQGTKVEIKR | – | – | – | – | – | – | ~2 | – | – | 92.9 | 0.93 | 1 | – |
| NNCD-0114-0000-0038, Heavy-chain residue 31 Ser to Ala mutated form (H:S31A) of NNC 0114-0005 (antibody, human IgG1, kappa, V domains shown) VH: QVQLVESGGGVVQPGRSLRLSCAASGFTFSAYGMHWVRQAPGKGLEWVAFIWYDGSDKYYADSVKGRFTISRDNSKNTLYLQMNSLRAEDTAVYYCARDGDSSDWYGDYYFGMDVWGQGTTVTVSS VL: not shown | 0.43 pM and 0.42 pM | 1.2e-05 s⁻¹ and 1.1e-05 s⁻¹ | 2.7e+07 | 0.09 | 6.8e-06 | 7.5e+07 | ~2 | – | – | 89.2 | 1.18 | 1.21 | Kd [10]: ≤ 1 pM; koff [10]: 1e-05 s⁻¹ |
| 0114-0000-0039, light chain S53A variant of mAb 0006 (NNC 0114-0005) (antibody, human IgG1, kappa, V domains shown) VH: QVQLVESGGGVVQPGRSLRLSCAASGFTFSSYGMHWVRQAPGKGLEWVAFIWYDGSDKYYADSVKGRFTISRDNSKNTLYLQMNSLRAEDTAVYYCARDGDSSDWYGDYYFGMDVWGQGTTVTVSS VL: EIVLTQSPGTLSLSPGERATLSCRASQSVSSSYLAWYQQKPGQAPRLLIYGAASRATGIPDRFSGSGSGTDFTLTISRLEPEDFAVYYCQQYGSWTFGQGTKVEIKR | – | – | – | – | – | – | ~2 | – | – | 95.2 | 0.78 | 0.92 | – |
| monoclonal antibody NNC 0114-0015 (antibody, V domains shown, also called NNC114-0015) VH: QVQLVESGGGVVQPGRSLRLSCAASGFTFSTYGMHWVRQAPGKGLEWVAFIWYDGSDKYYADSVKGRFTISRDNSKNTLYLQMNSLRAEDTAVYYCARDGDSSDWYGDYYFGMDVWGQGTTVTVSS VL: not shown | – | – | – | – | – | – | – | 0.86 | 0.91 | – | 1.23 | 1.13 | Kd [11]: 0.12 pM and 0.18 pM and 0.28 pM; koff [11]: 6.8e-06 s⁻¹ and 8.9e-06 s⁻¹ and 1.2e-05 s⁻¹; kon [11]: 5.5e+07 M⁻¹ s⁻¹ and 4.9e+07 M⁻¹ s⁻¹ and 4.3e+07 M⁻¹ s⁻¹; Kd [7]: ≤ 1 pM; koff [7]: 1e-05 s⁻¹ |
| 0114-0000-0041, light chain S54A variant of mAb 0006 (NNC 0114-0005) (antibody, human IgG1, kappa, V domains shown) VH: QVQLVESGGGVVQPGRSLRLSCAASGFTFSSYGMHWVRQAPGKGLEWVAFIWYDGSDKYYADSVKGRFTISRDNSKNTLYLQMNSLRAEDTAVYYCARDGDSSDWYGDYYFGMDVWGQGTTVTVSS VL: EIVLTQSPGTLSLSPGERATLSCRASQSVSSSYLAWYQQKPGQAPRLLIYGASARATGIPDRFSGSGSGTDFTLTISRLEPEDFAVYYCQQYGSWTFGQGTKVEIKR | – | – | – | – | – | – | ~2 | – | – | 83.9 | 1.15 | 1.12 | – |
